According to patent publication US20050089839A1, “Assay” (priority 2001, published 2005):
Where a SMILES comes first, the peptide text is derived from it. The star is where a group is joined. Cbz = O=C(OCc1ccccc1)*

What was measured:
[1] = tested on: T1, p-Prl^PP/29, 29 aa mutant signal peptide of pre-prolactin
T1 sequence: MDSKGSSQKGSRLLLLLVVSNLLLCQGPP

[2] = molecular target: T2, signal peptide peptidase (SPPase) (Canis lupus familiaris, UniProt A0A8I3P6M4); experiment: In vitro translation/translocation of SP-E1/100 and core-E1/100 with ER-derived rough microsomes: SPPase processing; format: biochemical, dog; conditions: 10 μM (Z-LL)2-ketone; for Production of the 19 kDa core species (core179) from core-E1/100: FIG. 1B, FIG. 3B
T2 construct: translated in reticulocyte lysate in the presence of endoplasmic reticulum-(ER) derived rough microsomes; from tissue; host or cells: nuclease-treated rough microsomes from dog pancreas
T2 sequence (A0A8I3P6M4 entry or part of it): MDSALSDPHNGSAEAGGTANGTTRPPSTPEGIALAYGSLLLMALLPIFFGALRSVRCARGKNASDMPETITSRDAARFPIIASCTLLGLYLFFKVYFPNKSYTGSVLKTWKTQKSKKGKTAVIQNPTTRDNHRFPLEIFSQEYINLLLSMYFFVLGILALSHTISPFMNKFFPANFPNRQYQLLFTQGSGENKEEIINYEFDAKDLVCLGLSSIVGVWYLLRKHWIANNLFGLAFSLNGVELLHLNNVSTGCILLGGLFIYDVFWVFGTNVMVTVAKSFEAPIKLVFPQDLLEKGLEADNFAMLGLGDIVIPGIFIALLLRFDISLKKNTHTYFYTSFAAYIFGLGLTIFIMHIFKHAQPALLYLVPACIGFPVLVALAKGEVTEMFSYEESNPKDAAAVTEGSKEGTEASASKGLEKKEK
Procedure: The mRNAs were translated in 25 μl rabbit reticulocyte lysate (Promega) containing [^35S]-methionine (Amersham-Pharmacia) and, where indicated, 2 eq of nuclease-treated rough microsomes prepared from dog pancreas (Martoglio et al., 1998, Cell Biology: A Laboratory Handbook. Academic Press, San Diego, Calif., vol 2, 265-274). To inhibit signal peptide peptidase (SPPase) processing, 10 μM (Z-LL)2-ketone was added to reactions (Weihofen et al., 2000 J Biol Chem 275, 30951-30956), and reactions were supplemented with 30 μM N-benzoyl-Asn-Leu-Thr-methyamide to prevent N-glycosylation of translated products (Martoglio et al., 1998, Cell Biology: A Laboratory Handbook. Academic Press, San Diego, Calif., vol 2,265-274). Samples were incubated for 30 min at 30° C. Reactions containing microsomes were next diluted with 25 μl of RM buffer (50 mM HEPES-KOH, pH7.6, 50 mM KOAc, 2 mM Mg(OAc)2, 1 mM DTT, 250 mM sucrose), and the salt concentration was raised to 500 mM KOAc. After incubation for 5 min on ice, membranes were separated by centrifugation through a 100 μl sucrose cushion (RM buffer with 500 mM KOAc and 500 mM sucrose) at 48,000 rpm for 3 min at 4° C. in a Beckman TLA100 rotor. Membrane pellets were prepared for SDS-PAGE as described (Weihofen et al., 2000 J Biol Chem. 275, 30951-30956).
This processing event was re-examined in an in vitro translation/translocation system. Two RNA substrates, that had been transcribed in vitro, were employed. One contained the E1 signal sequence and the N-terminal 100 aa of E1 (SP-E1/100), and the second consisted of the entire core protein, including the signal sequence, plus the N-terminal 100 aa of E1 (core-E1/100). These were translated in reticulocyte lysate in the presence of endoplasmic reticulum-(ER) derived rough microsomes and [^35S]-methionine. Microsomes were subsequently isolated and analysed for retention of radiolabelled translation products.

SPPase [3] = experiment: Photo-labelling of CHAPS-solubilised ER membrane proteins with TBL4K, anti-biotin western blot; format: binding, dog; conditions: 50 nM TBL4K
Procedure: CHAPS-solubilised ER membrane proteins were mixed with 50 nM TBL4K (dissolved in DMSO) and samples incubated at 30° C. for 1 hour. Where indicated, samples were irradiated with UV light before precipitation with 10% trichloroacetic acid. Proteins were resolved on Tris-glycine acrylamide gels, transferred to PVDF membrane and biotinylated proteins were visualised by western blotting with polyclonal anti-biotin antibody.
For analytical labelling, 2 μl of CHAPS-solubilised ER membrane proteins were diluted with 16 μl of SPPase buffet (25 mM HEPES-KOH, pH 7.6, 100 mM KOAc, 2 mM Mg(OAc)2, 1 mM DTI) and supplemented with 50 nM TBL4K (dissolved in DMSO). Samples were incubated at 30° C. for 1 hour and subsequently irradiated with UV light (30 seconds; 350 W high pressure mercury lamp with a pyrex filter, 10 cm distance to lamp). Proteins were precipitated with 10% trichloroacetic acid and resolved on either Tris-glycine acrylamide gels (10% T, 2.7% C) (Lämmli, 1970 Nature, 227, 570-574). Biotinylated proteins were visualised by Western blotting with a polyclonal anti-biotin antibody (Bethyl). Western blot analysis was performed as described in Section 3, Materials and Methods for R308 antisera. […]

signal peptidase = conditions: previous studies (Weihofen et al., 2000); cited from earlier work
SPPase [4] = experiment: Signal peptide processing of p-PrlPP/29 by CHAPS-solubilised ER membrane proteins containing SPPase activity; format: biochemical, dog; parameters: SPF production: dose or concentration left out as unconfirmed
Procedure: Radio-labelled p-Prl^PP/29 signal peptide was generated by in vitro translation in wheat germ extract containing [^35S]-methionine. Peptide was added to CHAPS-solubilised membranes in the absence or presence of TBL4K (at the indicated final concentrations) and incubated for 1 hour at 30° C. Proteins were precipitated with 10% trichloroacetic acid and analysed by SDS-PAGE using Tris-bicine-urea acrylamide gels. Bands corresponding to signal peptide substrate (ps) and the fragment of signal peptide remaining after SPPase processing (SPF) are indicated.
The inhibitory effect of TBL4K on SPPase was assayed with CHAPS-solubilised ER membrane proteins and an in vitro translated peptide substrate. The substrate was a 29 aa residues long mutant signal peptide of pre-prolactin (p-Prl^PP/29; […]). The VV→PP mutation at the end of the signal peptide prevents cleavage by signal peptidase, which can cleave the peptide at the cryptic cleavage site at G27 when solubilised in CHAPS (B.M. unpublished). […] Proteins were precipitated by adding 4 μl of 100% trichloroacetic acid, and analysed by SDS-PAGE using Tris-bicine-urea acrylamide gels (15% T or 10% T, 5% C; 8 M urea) (Wiltfang et al., 1997 Electrophoresis 18, 527-532). […]

BHK C13 cells = experiment: Abundance of HCV core protein in electroporated BHK cells treated with MG132 (western blot, immunofluorescence); format: cell-based, baby hamster; conditions: MG132 for 12 hours at 37° C.
Procedure: BHK cells were electroporated with RNA and 5 hours after incubation at 37° C., they were treated with MG132 for 12 hours at 37° C. Cells were either fixed with methanol for indirect immunofluorescence (A) or extracts were prepared for Western blot analysis (B and C).
For the purposes of the present invention, the cultured cells derived from baby hamster kidney (BHK) C13 cells were grown and maintained in Glasgow minimal Eagle's Medium supplemented with 10% new-born calf serum (CS), 4% tryptose phosphate broth, and 100 IU/ml penicillin/streptomycin (ETC10). To treat cells with MG132 (Boston Biochem), cultured cells were incubated for 5 hours after electroporation at 37° C. and the BHK media was replaced with fresh media containing the protease inhibitor at a final concentration of […]. Incubation was continued at 37° C. for a further 12 hours before the cells were either harvested for Western blot analysis or fixed for indirect immunofluorescence studies.

Question: With “signal peptide peptidase (SPPase) of ER-derived rough microsomes from dog pancreas” as the compound, how does the “signal peptide processing by SPPase (in vitro translation/translocation, with and without (Z-LL)2 ketone)” value (SP-E1/100 (wild type)) read?
Answer: the internal signal sequence at the junction of core-E1 functions as a typical ER targeting signal and is a substrate not only for signal peptidase but also for SPPase

Question: And the “processing of the signal peptide by SPPase” value (SP-E1/100 MUTIII)?
Answer: less than 5% processing of the signal peptide by SPPase

Question: What about the “cleavage of the signal peptide (in vitro translation/translocation)” value (SP-E1/100 MUTII) of the same compound?
Answer: cleavage of the signal peptide was reduced with both mutants, but to a greater extent with pSP/MUTII as compared to pSP/MUTI

Question: What about the “cleavage of the signal peptide (in vitro translation/translocation)” value (SP-E1/100 MUTI) of the same compound?
Answer: cleavage of the signal peptide was reduced with both mutants, but to a greater extent with pSP/MUTII as compared to pSP/MUTI

Question: What about the “efficiency of processing (core179 relative to core191+core179)” value (core-E1/100 (wild type)) of the same compound?
Answer: reduced efficiency of processing from 40% to 12%

Question: What about the “production of the 19 kDa core species (in vitro translation/translocation, with and without (Z-LL)2 ketone)” value (core-E1/100 (wild type)) of the same compound?
Answer: the signal peptide at the junction of core-E1 sequences in HCV is first cleaved by signal peptidase and subsequently processed by SPPase

Question: And the “product cleaved by SPPase (in vitro translation/translocation)” value (core-E1/100 MUTIII)?
Answer: failed to generate any detectable product that had been cleaved by SPPase

Question: What about the “product cleaved by SPPase (in vitro translation/translocation)” value (core-E1/100 MUTII) of the same compound?
Answer: failed to generate any detectable product that had been cleaved by SPPase

Question: What about the “efficiency of processing (core179 relative to core191+core179)” value (core-E1/100 MUTI) of the same compound?
Answer: reduced efficiency of processing from 40% to 12%

Question: And the “signal peptide processing (production of the SPF fragment) with CHAPS-solubilised ER membrane proteins” value [1]?
Answer: signal peptide processing reactions were performed with a substrate, p-Prl^PP/29, that corresponds to a mutated signal peptide of pre-prolactin, and CHAPS-solubilised ER membrane proteins containing SPPase activity

Question: For `CC(C)C[C@H](NC(=O)OCc1ccccc1)C(=O)N[C@@H](CC(C)C)C(=O)NCC(=O)CNC(=O)[C@H](CC(C)C)NC(=O)[C@H](CC(C)C)NC(=O)OCc1ccccc1` [(Z-LL)2 ketone], which “Cleavage by SPPase of the signal peptide generated from SP-E1/100” value ([2]; FIG. 1A) is on record?
Answer: blocked

Question: What about the “Production of the 19 kDa core species (core179) from core-E1/100” value [2] of the same compound?
Answer: blocked

Question: And the “Production of the 19 kDa core species (core179) from core-E1/100” value ([2]; listed as SPPase inhibitor)?
Answer: not generated

Question: And the “Labelling by TBL4K in presence of competitor” value (SPPase [3]; highest concentration of (Z-LL)2 ketone, FIG. 10)?
Answer: almost completely abolished

Question: What about the “Effect on cleavage by signal peptidase” value (signal peptidase) of the same compound?
Answer: does not affect

Question: What does the source list for (TDBA-LL)(Biotin-X-LL) ketone [TBL4K]?
Answer: SPF production (SPPase [4]; highest concentration used): abolished; IC50 (SPPase [4]; substrate p-PrlPP/29, 1 hour at 30° C., FIG. 9, read-out: IC50 for inhibition of SPPase activity): ~0.05 µM; Proteins labelled after UV activation (SPPase [3]; UV light, FIG. 10 lane 3): labelling of a major product of about 42 kDa

Question: Which “Levels of core produced by pSF/CE1E2 (core variant lacking residues 125-144)” value (BHK C13 cells; FIG. 7B lanes 3 and 4) does the source give for `CC(C)C[C@@H](C=O)NC(=O)[C@H](CC(C)C)NC(=O)[C@H](CC(C)C)NC(=O)OCc1ccccc1` [MG132] (Cbz-Leu-Leu-Leu-aldehyde) here?
Answer: enhanced levels

Question: And the “Amount of core in cells electroporated with pSF/MUTIII RNA (125-144 deleted, signal peptide mutations)” value (BHK C13 cells; FIG. 7B lanes 5 and 6)?
Answer: did not affect
